Laboratory results as given in US20120258107A1.

Key:
[1] = target: human CD163 on cells (human) (UniProt Q86VB7); experiment: flow cytometry, whole blood, citrate as anticoagulant
[2] = target: human CD163 on cells (human) (UniProt Q86VB7); experiment: flow cytometry, CD163low subset of peripheral blood dendritic cells
[3] = target: human CD163 on cells (human) (UniProt Q86VB7); experiment: quantitative flow cytometry, whole blood, EDTA
[4] = target: human CD163 on cells (human) (UniProt Q86VB7); experiment: flow cytometry, PBMC after density gradient centrifugation
[5] = target: human CD163 on cells (human) (UniProt Q86VB7); experiment: quantitative flow cytometry, whole blood, heparin
[6] = target: human CD163 on cells (human) (UniProt Q86VB7); experiment: flow cytometry, whole blood, heparin as anticoagulant
[7] = target: human CD163 on cells (human) (UniProt Q86VB7); experiment: quantitative flow cytometry, PBMC after density gradient centrifugation
[8] = target: human CD163 on cells (human) (UniProt Q86VB7); experiment: flow cytometry, CD14+ILT3+HLA-DR+ monocytes stained positive for CD163
[9] = target: human CD163 on cells (human) (UniProt Q86VB7); experiment: flow cytometry, PE mAb, CD14-ILT3+ dendritic cells in whole blood
[10] = target: human CD163 on cells (human) (UniProt Q86VB7); experiment: quantitative flow cytometry, Quantibrite PE beads, EDTA whole blood
[11] = target: human CD163 on cells (human) (UniProt Q86VB7); experiment: flow cytometry, whole blood, EDTA as anticoagulant
[12] = target: human CD163 on cells (human) (UniProt Q86VB7); experiment: flow cytometry, PE mAb, peripheral blood dendritic cells
[13] = target: human CD163 on cells (human) (UniProt Q86VB7); experiment: flow cytometry, CD163high subset of peripheral blood dendritic cells
[14] = target: human CD163 on cells (human) (UniProt Q86VB7); experiment: quantitative flow cytometry, whole blood, citrate
[15] = target: purified recombinant CD163 immobilized on a Biacore chip (human) (UniProt Q86VB7); experiment: SPR, immobilized CD163, 10 mM EDTA
purified recombinant CD163 immobilized on a Biacore chip (human), sequence (Q86VB7 42-1050 limits assumed): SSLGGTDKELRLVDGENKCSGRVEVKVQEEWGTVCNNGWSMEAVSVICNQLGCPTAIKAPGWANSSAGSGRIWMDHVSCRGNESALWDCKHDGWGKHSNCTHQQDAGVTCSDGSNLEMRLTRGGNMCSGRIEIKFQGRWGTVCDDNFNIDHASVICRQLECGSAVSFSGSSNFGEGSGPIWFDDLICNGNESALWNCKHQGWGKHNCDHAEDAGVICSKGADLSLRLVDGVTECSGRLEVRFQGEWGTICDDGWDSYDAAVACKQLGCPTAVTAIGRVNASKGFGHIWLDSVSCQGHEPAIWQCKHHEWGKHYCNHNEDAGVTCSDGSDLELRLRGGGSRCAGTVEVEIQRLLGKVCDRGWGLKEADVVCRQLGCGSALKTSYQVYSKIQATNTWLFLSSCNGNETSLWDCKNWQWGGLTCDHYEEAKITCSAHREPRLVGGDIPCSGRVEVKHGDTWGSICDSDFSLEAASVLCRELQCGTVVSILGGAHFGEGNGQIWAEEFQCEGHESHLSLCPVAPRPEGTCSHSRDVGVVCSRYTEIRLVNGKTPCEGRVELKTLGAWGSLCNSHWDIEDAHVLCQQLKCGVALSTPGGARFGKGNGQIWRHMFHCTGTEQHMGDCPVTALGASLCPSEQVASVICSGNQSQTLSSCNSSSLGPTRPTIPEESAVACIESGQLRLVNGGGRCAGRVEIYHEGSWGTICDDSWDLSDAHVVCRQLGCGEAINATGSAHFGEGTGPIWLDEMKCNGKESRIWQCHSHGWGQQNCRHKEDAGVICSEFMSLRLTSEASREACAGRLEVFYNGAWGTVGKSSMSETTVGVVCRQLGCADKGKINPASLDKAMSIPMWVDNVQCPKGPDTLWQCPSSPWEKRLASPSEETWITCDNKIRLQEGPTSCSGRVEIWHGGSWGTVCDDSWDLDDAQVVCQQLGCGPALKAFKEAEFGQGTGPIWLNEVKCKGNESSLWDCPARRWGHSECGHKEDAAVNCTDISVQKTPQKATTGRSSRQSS

[16] = target: human CD163 on cells (human) (UniProt Q86VB7); experiment: flow cytometry, R-PE mAb, freshly drawn EDTA whole blood
[17] = target: human CD163 on cells (human) (UniProt Q86VB7); experiment: 125I-labelled mAb on stable CD163 transfected Flp-In CHO cells (1.23% on non-transfected cells)
[18] = target: human CD163 on cells (human) (UniProt Q86VB7); experiment: 125I-labelled mAb on stable CD163 transfected Flp-In CHO cells (0.97% on non-transfected cells)
[19] = target: purified recombinant CD163 immobilized on a Biacore chip (human) (UniProt Q86VB7); experiment: SPR, immobilized CD163, 2 mM free Ca2+
[20] = target: human CD163 on cells (human) (UniProt Q86VB7); experiment: 125I-labelled mAb on stable CD163 transfected Flp-In CHO cells (1.47% on non-transfected cells)
[21] = target: rat CD163 on cells (rat); experiment: flow cytometry, rat peritoneal macrophages, ED2-FITC
[22] = target: rat CD163 on cells (rat); experiment: flow cytometry of rat peritoneal macrophages, anti-rat CD163-FITC (ED2) against anti-rat CD172a-PE (ED9)
[23] = target: rat CD163 on cells (rat); experiment: cell-based or functional assay
[24] = target: rat CD163 on cells (rat); experiment: flow cytometry of rat peritoneal macrophages, negative control staining with IgG-FITC
[25] = target: human CD163 on cells (human) (UniProt Q86VB7); experiment: flow cytometry on peripheral blood dendritic cells, negative staining control
[26] = target: human CD163 on cells (human) (UniProt Q86VB7); experiment: quantitative flow cytometry, background staining, EDTA whole blood

human CD163 on cells (human), sequence (Q86VB7 42-1156): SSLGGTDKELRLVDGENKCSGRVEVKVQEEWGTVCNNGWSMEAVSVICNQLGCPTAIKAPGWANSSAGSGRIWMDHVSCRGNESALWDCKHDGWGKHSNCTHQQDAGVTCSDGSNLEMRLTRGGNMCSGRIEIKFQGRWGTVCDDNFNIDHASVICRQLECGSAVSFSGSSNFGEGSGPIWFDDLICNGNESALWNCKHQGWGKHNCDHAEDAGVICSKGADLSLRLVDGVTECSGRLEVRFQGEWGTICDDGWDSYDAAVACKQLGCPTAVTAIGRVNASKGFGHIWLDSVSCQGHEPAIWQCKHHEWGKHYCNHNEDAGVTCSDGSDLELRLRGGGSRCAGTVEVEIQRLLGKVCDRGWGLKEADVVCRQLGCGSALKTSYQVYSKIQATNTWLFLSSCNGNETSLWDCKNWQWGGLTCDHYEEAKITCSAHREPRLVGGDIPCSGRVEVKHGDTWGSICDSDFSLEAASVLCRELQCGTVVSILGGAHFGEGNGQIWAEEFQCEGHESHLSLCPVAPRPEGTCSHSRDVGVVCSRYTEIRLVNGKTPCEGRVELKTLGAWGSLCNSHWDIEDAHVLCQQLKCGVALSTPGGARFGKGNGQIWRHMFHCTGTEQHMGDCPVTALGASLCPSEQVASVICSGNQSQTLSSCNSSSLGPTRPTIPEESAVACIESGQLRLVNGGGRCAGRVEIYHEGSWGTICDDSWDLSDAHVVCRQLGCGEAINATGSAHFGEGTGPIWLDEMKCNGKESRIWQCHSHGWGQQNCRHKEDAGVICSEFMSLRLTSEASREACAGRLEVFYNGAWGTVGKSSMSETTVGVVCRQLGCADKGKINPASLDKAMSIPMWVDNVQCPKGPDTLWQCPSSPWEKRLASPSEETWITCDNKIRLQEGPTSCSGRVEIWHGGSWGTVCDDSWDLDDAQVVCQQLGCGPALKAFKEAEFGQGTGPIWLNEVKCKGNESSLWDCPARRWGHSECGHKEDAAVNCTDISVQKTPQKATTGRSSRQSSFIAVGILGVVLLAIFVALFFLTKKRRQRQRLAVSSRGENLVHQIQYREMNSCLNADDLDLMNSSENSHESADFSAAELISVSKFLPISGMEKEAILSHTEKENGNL

## Anti-CD163 (GHI/61) (antibody)
[1]
  fraction of CD14+ monocytes stained positive for CD163: 64.4%
[2]
  MFI: 4.2 MFI
[3]
  density of CD163 receptors per monocyte (PE antibodies bound per cell): 1030 per monocyte
[4]
  fraction of CD14+ monocytes stained positive for CD163: 1.26%
[5]
  density of CD163 receptors per monocyte (PE antibodies bound per cell): 58.3 per monocyte
[6]
  fraction of CD14+ monocytes stained positive for CD163: 0.82%
[7]
  density of CD163 receptors per monocyte (PE antibodies bound per cell): 108 per monocyte
[8]
  percent of cells stained positive: 88%
[9]
  fraction of peripheral blood dendritic cells recognized: 10.5%
[10]
  density of CD163 receptors per monocyte (PE antibodies bound per cell): 1030 per monocyte
[11]
  fraction of CD14+ monocytes stained positive for CD163: 63%
[12]
  MFI: 22.3
[13]
  MFI: 34.6 MFI
[14]
  density of CD163 receptors per monocyte (PE antibodies bound per cell): 1150 per monocyte
[15]
  Kd: 29 nM
[16]
  fraction of CD14+ monocytes stained positive for CD163: 63%

## Anti-CD163 (GHI/61) (antibody, non-transfected cells)
[17]
  percentage of cell-associated radioactivity: 1.23%

## Anti-CD163 (R-20) (antibody)
[1]
  fraction of CD14+ monocytes stained positive for CD163: 74.7%
[3]
  density of CD163 receptors per monocyte (PE antibodies bound per cell): 1760 per monocyte
[4]
  fraction of CD14+ monocytes stained positive for CD163: 54.4%
[5]
  density of CD163 receptors per monocyte (PE antibodies bound per cell): 3020 per monocyte
[6]
  fraction of CD14+ monocytes stained positive for CD163: 63%
[7]
  density of CD163 receptors per monocyte (PE antibodies bound per cell): 837 per monocyte
[10]
  density of CD163 receptors per monocyte (PE antibodies bound per cell): 1650 per monocyte
[11]
  fraction of CD14+ monocytes stained positive for CD163: 75.9%
[14]
  density of CD163 receptors per monocyte (PE antibodies bound per cell): 1990 per monocyte
[18]
  percentage of cell-associated radioactivity: 19%
[16]
  fraction of CD14+ monocytes stained positive for CD163: 75.9%

## Anti-CD163 (RM3/1) (antibody)
[1]
  fraction of CD14+ monocytes stained positive for CD163: 12.5%
[19]
  Kd: 0.6 nM
[3]
  density of CD163 receptors per monocyte (PE antibodies bound per cell): 86 per monocyte
[4]
  fraction of CD14+ monocytes stained positive for CD163: 2.5%
[5]
  density of CD163 receptors per monocyte (PE antibodies bound per cell): 210 per monocyte
[6]
  fraction of CD14+ monocytes stained positive for CD163: 3.33%
[7]
  density of CD163 receptors per monocyte (PE antibodies bound per cell): 132 per monocyte
[20]
  percentage of cell-associated radioactivity: 7.77%
[10]
  density of CD163 receptors per monocyte (PE antibodies bound per cell): 101 per monocyte
[11]
  fraction of CD14+ monocytes stained positive for CD163: 0.33%
[14]
  density of CD163 receptors per monocyte (PE antibodies bound per cell): 207 per monocyte
[16]
  fraction of CD14+ monocytes stained positive for CD163: 0.33%

## Anti-rat CD163 ED2 (antibody)
[21]
  fraction of peritoneal macrophages CD163 positive: 42%
[22]
  % of cells in the lower right quadrant (CD172a PE negative, CD163 FITC positive): 0.01%
  % of cells in the upper right quadrant (CD172a PE positive, CD163 FITC positive): 42.9%

## ED2-MVCP-dexamethasone (antibody)
[23]
  suppressive effect on LPS mediated TNFα in vitro, rat spleen cells, against free dexamethasone: 3 fold

## ED2-NHS-dexamethasone (antibody)
[23]
  level of TNFα suppression after 15 minutes of incubation, LPS stimulated rat spleen cells, against free dexamethasone: 2 fold
  suppressive effect on LPS mediated TNFα in vitro, rat spleen cells, against free dexamethasone: 2 fold

## IgG-FITC (antibody)
[24]
  % of cells in the lower right quadrant (IgG FITC positive): 0.41%
  % of cells in the upper right quadrant (IgG FITC positive, FL2 positive): 0.06%

## R-PE-conjugated Mouse IgG1, k isotype control (MCG1) (antibody)
[25]
  MFI: 1.23 MFI
[26]
  density of CD163 receptors per monocyte (PE antibodies bound per cell): 94 per monocyte
